Laboratory results reported in the supplement of paper PMC7125110.
± gives the standard error. For some of these results: Variants at the floor of the assay were thinned out.

B1: glmS ribozyme (parent)
chain: AUAAAAGCGCCAGAACUACAGAAAUGUAGUUGACGAGGAGGAGGUUUAUCGAAUUUUCGGCGGAUGCCUCCAAA

Tests used:
Settings in all cases: with glucosamine-6-phosphate
glucosamine-6-phosphate [1] = variants of: B1; assay: kcat; higher = faster cleavage; RNA array
Summary of the method: (§1)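 E. coli RNA polymerase transcribed barcoded ribozyme variants in situ on sequenced MiSeq chips, which were tracked via a hybridised Cy3 probe at 37 °C. Tiles were imaged over ~14 h after glucosamine-6-phosphate (40 μM to 10 mM) in HEPES/KCl/Mg(OAc)2 buffer was flowed in. Normalised per-tile medians were fit to one- or two-exponential decays for kobs, and kcat and KM came from weighted Michaelis–Menten fits.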

glucosamine-6-phosphate [2] = variants of: B1; assay: KM; higher = weaker cofactor use; RNA array
Summary of the method: as §1

glucosamine-6-phosphate [3] = variants of: B1; assay: self-cleavage kobs at 160 uM GlcN6P; higher = faster cleavage; RNA array
Summary of the method: as §1

glucosamine-6-phosphate [4] = variants of: B1; assay: self-cleavage kobs at 640 uM GlcN6P; higher = faster cleavage; RNA array
Summary of the method: as §1

glucosamine-6-phosphate [5] = variants of: B1; assay: self-cleavage kobs at 2500 uM GlcN6P; higher = faster cleavage; RNA array
Summary of the method: as §1

glucosamine-6-phosphate [6] = variants of: B1; assay: self-cleavage kobs at 10000 uM GlcN6P; higher = faster cleavage; RNA array
Summary of the method: as §1

glucosamine-6-phosphate [7] = variants of: B1; assay: self-cleavage kobs at 40 uM GlcN6P; higher = faster cleavage; RNA array
Summary of the method: as §1

Variant	kcat (glucosamine-6-phosphate [1]) [s⁻¹]	KM (glucosamine-6-phosphate [2]) [µM]	self-cleavage kobs at 160 uM GlcN6P (glucosamine-6-phosphate [3]) [s⁻¹]	self-cleavage kobs at 640 uM GlcN6P (glucosamine-6-phosphate [4]) [s⁻¹]	self-cleavage kobs at 2500 uM GlcN6P (glucosamine-6-phosphate [5]) [s⁻¹]	self-cleavage kobs at 10000 uM GlcN6P (glucosamine-6-phosphate [6]) [s⁻¹]	self-cleavage kobs at 40 uM GlcN6P (glucosamine-6-phosphate [7]) [s⁻¹]
A64G C71A	0.000799 ± 8.2e-05	1410 ± 280	7.29e-05 ± 1.4e-05	0.000265 ± 3.8e-05	0.00059 ± 7.4e-05	0.000652 ± 7.6e-05	
A52G U65C	3.32e-05 ± 1.6e-06	248 ± 83					
A52G C68A	2.06e-05 ± 5.7e-06						
G40C U49G	6.75e-05 ± 1.8e-05				5.43e-05 ± 1.5e-05	5.5e-05 ± 1.3e-05	< 1e-05
U57G C70U	7.01e-05 ± 1.4e-05			5.96e-05 ± 1.8e-05	4.91e-05 ± 8.8e-06	8.12e-05 ± 1.3e-05	
C16U C50G A53U U55A	3.66e-05 ± 1e-05			4.65e-05 ± 2.2e-05			
G32C U69C	3.02e-05 ± 3.3e-06			3.47e-05 ± 1.7e-05	3.15e-05 ± 1.3e-05	2.58e-05 ± 1.2e-05	
U49A U65G	< 1e-05		< 1e-05			< 1e-05	
A14C U31A A64C	1.75e-05 ± 3.8e-06		< 1e-05				
G13C U30G	3.93e-05 ± 3.7e-06	2100 ± 830				3.23e-05 ± 9.3e-06	
G40A A52U	0.000228 ± 7.9e-05				9.49e-05 ± 1.5e-05	0.000146 ± 2.3e-05	
G32A G44A	6.55e-05 ± 1.7e-05						
C11A A14G	0.000935 ± 5.4e-05	1790 ± 200	7.64e-05 ± 2e-05	0.000261 ± 3.2e-05	0.00051 ± 7.7e-05	0.000802 ± 7.8e-05	1.65e-05 ± 7.4e-06
C16G C70G	5.91e-05 ± 5.2e-06			5.48e-05 ± 9.9e-06	6.29e-05 ± 9.7e-06	5.09e-05 ± 9.5e-06	
U45G A48G	2.93e-05 ± 2.6e-06	2270 ± 860					
G13A C50G C61G G66U	0.000136 ± 9.6e-06	17.2 ± 6.7	0.000112 ± 3.4e-05	0.000165 ± 5.4e-05	0.000149 ± 3.8e-05	0.000126 ± 2.6e-05	9.58e-05 ± 1.7e-05
C8A A48G	< 1e-05		< 1e-05		< 1e-05	< 1e-05	
C34U G51A	5.64e-05 ± 4.4e-06	2710 ± 750				4.45e-05 ± 8.4e-06	
C16G G59A	1.51e-05 ± 3.3e-06						

Variant	kcat (glucosamine-6-phosphate [1]) [s⁻¹]	KM (glucosamine-6-phosphate [2]) [µM]	self-cleavage kobs at 160 uM GlcN6P (glucosamine-6-phosphate [3]) [s⁻¹]	self-cleavage kobs at 640 uM GlcN6P (glucosamine-6-phosphate [4]) [s⁻¹]	self-cleavage kobs at 2500 uM GlcN6P (glucosamine-6-phosphate [5]) [s⁻¹]	self-cleavage kobs at 10000 uM GlcN6P (glucosamine-6-phosphate [6]) [s⁻¹]	self-cleavage kobs at 40 uM GlcN6P (glucosamine-6-phosphate [7]) [s⁻¹]
U46G A52G	0.00059 ± 3.1e-05	6370 ± 650		5.26e-05 ± 1.6e-05	0.000185 ± 9.1e-05	0.00036 ± 4.6e-05	
A14G U31C C71A	0.00296 ± 0.00085	1430 ± 590	0.000251 ± 7.7e-05		0.00227 ± 0.00096	0.00241 ± 0.00085	0.000143 ± 6.1e-05
A48U	0.000759 ± 5.7e-05	2420 ± 350		0.000153 ± 3.5e-06	0.000432 ± 1e-05	0.000593 ± 1.1e-05	< 1e-05
G13A G29C	0.00011 ± 4.9e-06	1990 ± 240			5.98e-05 ± 1.3e-05	9.3e-05 ± 1.7e-05	
C50U C70A	2.87e-05 ± 6.9e-06			3.61e-05 ± 1.4e-05	3.43e-05 ± 1.5e-05		
A36U A64G C70U	6.13e-05 ± 1.3e-05				7.29e-05 ± 2.6e-05	5.17e-05 ± 1.8e-05	
U47C U54C	0.00359 ± 0.00063	1240 ± 310	0.000434 ± 7.2e-05	0.00141 ± 0.00017	0.00299 ± 0.00053	0.00275 ± 0.00046	9.72e-05 ± 1.5e-05
G41A A42U	0.000123 ± 4e-06	1440 ± 160		3.91e-05 ± 1.2e-05	7.77e-05 ± 1.3e-05	0.000108 ± 1.2e-05	
A12G G37A	0.000113 ± 2.5e-05	6320 ± 2800			3.05e-05 ± 8.5e-06	6.97e-05 ± 1.1e-05	
C61A	< 1e-05						
C34A A36U	< 1e-05			< 1e-05	< 1e-05	< 1e-05	< 1e-05
U49A C71G	2.68e-05 ± 1e-05			3.32e-05 ± 1.2e-05			
A53C U55A	0.00829 ± 0.0024	2150 ± 840	0.000453 ± 6.9e-05	0.00172 ± 0.00021	0.00411 ± 0.00049	0.00772 ± 0.00094	0.000204 ± 1.9e-05
G37A U69G	2.13e-05 ± 3.7e-06						
A14U C71A	0.00123 ± 0.0004	2040 ± 970	8.35e-05 ± 1.2e-05	0.00027 ± 4.3e-05	0.000647 ± 8.4e-05	0.00114 ± 0.00019	5.26e-05 ± 9.6e-06
G29A U45C	0.000385 ± 7.7e-05	2000 ± 720	3.6e-05 ± 1.4e-05	8.28e-05 ± 1.4e-05	0.000273 ± 4.1e-05	0.000293 ± 5e-05	
A39U U69A	0.000214 ± 3.6e-05	2430 ± 770		5.02e-05 ± 1.2e-05	0.000105 ± 1.3e-05	0.000197 ± 5.6e-05	
U57C C71U	0.000136 ± 1.9e-05			9.57e-05 ± 1.9e-05	8.71e-05 ± 2.6e-05	0.000139 ± 1.6e-05	< 1e-05
